{"source": "patent US20090062179A1", "about": "(University of Texas, published 2009)", "molecular_target": "T1, VP16-ERα chimera (full-length ERα fused to the Herpes simplex virus VP16 transactivation domain) (Herpes simplex virus, UniProt P03372 1-595)", "T1 construct": "Expressed in HeLa cells for the mammalian two-hybrid assay; also called pACT-ERα", "T1 sequence": "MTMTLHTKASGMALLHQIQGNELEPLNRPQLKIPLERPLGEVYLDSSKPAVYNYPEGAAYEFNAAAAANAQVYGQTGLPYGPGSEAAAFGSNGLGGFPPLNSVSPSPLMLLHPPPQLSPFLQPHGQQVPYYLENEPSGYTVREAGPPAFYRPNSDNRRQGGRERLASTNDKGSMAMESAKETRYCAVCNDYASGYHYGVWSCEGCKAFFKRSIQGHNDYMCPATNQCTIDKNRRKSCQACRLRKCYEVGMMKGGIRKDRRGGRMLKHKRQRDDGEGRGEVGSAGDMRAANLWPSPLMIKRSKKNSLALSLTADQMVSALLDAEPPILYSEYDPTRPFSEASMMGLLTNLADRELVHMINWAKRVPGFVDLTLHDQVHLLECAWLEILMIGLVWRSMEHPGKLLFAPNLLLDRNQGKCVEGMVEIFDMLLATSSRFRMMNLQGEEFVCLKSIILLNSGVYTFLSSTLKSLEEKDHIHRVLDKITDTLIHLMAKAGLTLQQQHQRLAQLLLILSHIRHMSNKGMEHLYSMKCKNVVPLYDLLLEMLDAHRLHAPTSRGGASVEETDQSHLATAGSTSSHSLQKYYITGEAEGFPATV", "experiment": "mammalian two-hybrid (luciferase reporter) in HeLa cells, hormone-free"}
{"binder": "GAL4-DBC-1-C terminal chimera (amino acids 479-923) (other, yeast;human, UniProt P04386 1-147, looked up, Expressed in HeLa cells for the mammalian two-hybrid assay) MKLLSSIEQACDICRLKKLKCSKEKPKCAKCLKNNWECRYSPKTKRSPLTRAHLTEVESRLERLEQLFLLIFPREDLDMILKMDSLQDIKALLTGLFVQDNVNKDAVTDRLASVETDMPLTLRQHRISATSSSEESSNKGQRQLTVSRRNAETPEATTQQETDTDLPEAPPPPLEPAVIARPGCVNLSLHGIVEDRRPKERISFEVMVLAELFLEMLQRDFGYRVYKMLLSLPEKVVSPPEPEKEEAAKEEATKEEEAIKEEVVKEPKDEAQNEGPATESEAPLKEDGLLPKPLSSGGEEEEKPRGEASEDLCEMALDPELLLLRDDGEEEFAGAKLEDSEVRSVASNQSEMEFSSLQDMPKELDPSAVLPLDCLLAFVFFDANWCGYLHRRDLERILLTLGIRLSAEQAKQLVSRVVTQNICQYRSLQYSRQEGLDGGLPEEVLFGNLDLLPPPGKSTKPGAAPTEHKALVSHNGSLINVGSLLQRAEQQDSGRLYLENKIHTLELKLEESHNRFSATEVTNKTLAAEMQELRVRLAEAEETARTAERQKSQLQRLLQELRRRLTPLQLEIQRVVEKADSWVEKEEPAPSN", "values": [{"measurement": "binding result", "value": "no binding"}]}
